Data reported in patent US20180237527A1 (METIS PRECISION MEDICINE SB S R L, published 2018).

Biological target: T1, Met-Fc chimera (human, UniProt P08581 25-932)
T1 construct: extracellular domain;domain: Fc domain; Bought from R&D Systems; also called Fc-Met; Met ectodomain; not shown: Fc domain derived from a human IgG
Assay: ELISA, Met-Fc chimera in solid phase, antibody fragment in liquid phase, anti-strepTAG detection
Method: Purified DCD-MvDN30.1 and DCD-MvDN30.2 were characterized for their ability to bind the Met receptor. To this end, the present inventors performed ELISA assays using Met ectodomain in solid phase and MvDN30, DCD-MvDN30.1 and DCD-MvDN30.2 in liquid phase.
[…] […] Data were analyzed and fit using Prism software (Graph Pad Software, San Diego, Calif.). Met-Fc chimera is a fusion protein wherein the Fc domain derived from a human IgG is fused in frame with the Met extracellular portion.

T1 sequence (P08581 25-932, change not shown): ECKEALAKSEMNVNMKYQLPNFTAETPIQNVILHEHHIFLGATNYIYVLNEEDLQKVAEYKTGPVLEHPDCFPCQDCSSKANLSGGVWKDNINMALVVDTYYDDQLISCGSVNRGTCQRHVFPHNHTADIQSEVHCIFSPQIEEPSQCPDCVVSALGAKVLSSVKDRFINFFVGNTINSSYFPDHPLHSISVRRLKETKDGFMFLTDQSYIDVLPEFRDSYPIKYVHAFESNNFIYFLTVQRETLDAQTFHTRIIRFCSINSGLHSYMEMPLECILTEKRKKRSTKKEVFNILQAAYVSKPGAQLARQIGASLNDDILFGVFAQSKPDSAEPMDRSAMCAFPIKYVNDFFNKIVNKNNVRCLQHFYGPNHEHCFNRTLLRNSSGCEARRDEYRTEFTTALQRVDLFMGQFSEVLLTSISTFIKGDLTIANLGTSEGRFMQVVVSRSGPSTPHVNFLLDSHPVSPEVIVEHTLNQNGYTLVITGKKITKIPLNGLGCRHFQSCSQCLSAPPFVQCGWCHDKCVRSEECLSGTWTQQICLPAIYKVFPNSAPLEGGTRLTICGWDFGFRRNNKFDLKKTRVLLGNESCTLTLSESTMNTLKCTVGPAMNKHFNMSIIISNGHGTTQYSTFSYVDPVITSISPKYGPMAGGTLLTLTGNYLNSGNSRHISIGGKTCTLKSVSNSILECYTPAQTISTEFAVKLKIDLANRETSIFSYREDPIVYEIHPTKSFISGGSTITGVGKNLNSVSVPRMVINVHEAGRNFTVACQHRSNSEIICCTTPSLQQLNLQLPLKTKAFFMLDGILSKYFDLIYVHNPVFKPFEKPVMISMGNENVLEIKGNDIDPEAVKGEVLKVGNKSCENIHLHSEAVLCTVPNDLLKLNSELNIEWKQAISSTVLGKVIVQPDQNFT

Kd [nM]	Binder
0.141	chimerized DN30 Fab (MvDN30) (Fab, also called chimeric MvDN30; chimeric DN30 Fab) heavy: QVQLQQPGTELVKPGASVKLSCKASGYTFTSYWIHWVKQRPGQGLEWIGEINPSSGRTNYNEKFKNKVTVTVDKSSTTAYMQLSNLTSEDSAVYYCASRGYWGQGTTLTVSSASTKGPSVFPLAPSSKSTSGGTAALGCLVKDYFPEPVTVSWNSGALTSGVHTFPAVLQSSGLYSLSSVVTVPSSSLGTQTYICNVNHKPSNTKVDKKVEPKSC light: not shown
0.133	DCD-MvDN30.1 (Dual Constant Domain Fab with the duplicated constant domains in tandem) (Fab, also called DCD-Fab) heavy: QVQLQQPGTELVKPGASVKLSCKASGYTFTSYWIHWVKQRPGQGLEWIGEINPSSGRTNYNEKFKNKVTVTVDKSSTTAYMQLSNLTSEDSAVYYCASRGYWGQGTTLTVSSASTKGPSVFPLAPSSKSTSGGTAALGCLVKDYFPEPVTVSWNSGALTSGVHTFPAVLQSSGLYSLSSVVTVPSSSLGTQTYICNVNHKPSNTKVDKKVEPKSCASTKGPSVFPLAPSSKSTSGGTAALGCLVKDYFPEPVTVSWNSGALTSGVHTFPAVLQSSGLYSLSSVVTVPSSSLGTQTYICNVNHKPSNTKVDKKVEPKSCDKTHTGAAWSHPQFEKGAAWSHPQFEKGAAWSHPQFEKGAAHHHHHH light: not shown
0.13	DCD-MvDN30.2 (Dual Constant Domain Fab with the duplicated constant domains swapped reciprocally) (Fab, also called DCD-Fab) heavy: QVQLQQPGTELVKPGASVKLSCKASGYTFTSYWIHWVKQRPGQGLEWIGEINPSSGRTNYNEKFKNKVTVTVDKSSTTAYMQLSNLTSEDSAVYYCASRGYWGQGTTLTVSSASTKGPSVFPLAPSSKSTSGGTAALGCLVKDYFPEPVTVSWNSGALTSGVHTFPAVLQSSGLYSLSSVVTVPSSSLGTQTYICNVNHKPSNTKVDKKVEPKSCTVAAPSVFIFPPSDEQLKSGTASVVCLLNNFYPREAKVQWKVDNALQSGNSQESVTEQDSKDSTYSLSSTLTLSKADYEKHKVYACEVTHQGLSSPVTKSFNRGEC light: not shown
